Measurements taken from PMC5517500, “Cyclic di-GMP regulates Mycobacterium tuberculosis resistance to ethionamide” (Scientific Reports, 2017).

T1: Ycdc (Escherichia coli, UniProt P0ACU2)
T1 construct: gene rutR
T1 sequence (P0ACU2 1-212): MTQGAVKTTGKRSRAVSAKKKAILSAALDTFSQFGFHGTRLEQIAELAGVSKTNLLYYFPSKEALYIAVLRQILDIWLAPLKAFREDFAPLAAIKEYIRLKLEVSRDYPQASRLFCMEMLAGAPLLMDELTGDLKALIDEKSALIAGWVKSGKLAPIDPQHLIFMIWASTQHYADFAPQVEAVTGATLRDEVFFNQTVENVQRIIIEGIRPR


Experiments:
Ycdc = biological target: T1, Ycdc; assay: incubation with bio-c-di-GMP (Supplementary Fig. S4b); format: binding
EthR [1] = biological target: T2, EthR (Mycobacterium tuberculosis H37Rv, UniProt P9WMC1 1-216); assay: BLI; no c-di-GMP; conditions: protein: recombinant; tags: 6xHis (E. coli, pET28a) or GST (yeast); chain copies: 2; label: biotin on second strand (Ms6440pr)
T2 sequence (P9WMC1 whole entry): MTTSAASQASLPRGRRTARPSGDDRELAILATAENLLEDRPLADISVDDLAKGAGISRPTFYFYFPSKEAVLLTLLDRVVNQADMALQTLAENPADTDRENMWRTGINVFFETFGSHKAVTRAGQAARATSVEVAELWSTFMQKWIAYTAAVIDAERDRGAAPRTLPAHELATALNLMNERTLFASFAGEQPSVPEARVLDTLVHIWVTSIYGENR

EthR [2] = biological target: T2, EthR; assay: BLI; 50 uM c-di-GMP; conditions: protein: recombinant; tags: 6xHis (E. coli, pET28a) or GST (yeast); chain copies: 2; label: biotin on second strand (Ms6440pr)

| Molecule | incubation with bio-c-di-GMP (Supplementary Fig. S4b) (Ycdc) | Kd (EthR [1]) [nM] | Kd (EthR [2]) [nM] |
| --- | --- | --- | --- |
| Nc1nc2c(ncn2[C@@H]2O[C@@H]3COP(=O)(O)O[C@H]4[C@@H](O)[C@H](n5cnc6c(=O)[nH]c(N)nc65)O[C@@H]4COP(=O)(O)O[C@H]3[C@H]2O)c(=O)[nH]1 [c-di-GMP] | we incubated Escherichia coli Ycdc with bio-c-di-GMP, the result clearly showed that they bind each other |  |  |
| etha promoter DNA (dsDNA) DNA 1: CGGTCATGGATCCACGCTATCAACGTAATGTCGAGGCCGTCAACGAGATGTCGACACTATCGA DNA 2: CTGACTGGCCGCGGAGGTGGTCACCCTGGCAGCTTACTACGTGTCGATAGATGTCGACATCTCGTTGACGG |  | 1340 | 1120 |
